Test results: US20220048967A1 (published 2022)
Where a chain is given by its changes, count along the chain named. Numbered stars: 1 amine (or outer) side, 2 acyl side, 3 side chain; on linkers, the order of the positions; unused ones are H or OH. Square brackets hold non-standard residues; d marks the D form. Side chains are listed from the residue outwards. Ends that are not written are not given here. * marks the point of attachment. C20 diacid = O=C(O)CCCCCCCCCCCCCCCCCCC(=O)*; C18 diacid = O=C(O)CCCCCCCCCCCCCCCCC(=O)*; γGlu = O=C(O)[C@H](CCC(=O)[*:2])N[*:1]; AEEA = NCCOCCOCC(=O)O; Aib = CC(C)(N)C(=O)O

T1: human gastric inhibitory peptide receptor (GIPR) (human, UniProt P48546 22-466)
T1 sequence (looked up): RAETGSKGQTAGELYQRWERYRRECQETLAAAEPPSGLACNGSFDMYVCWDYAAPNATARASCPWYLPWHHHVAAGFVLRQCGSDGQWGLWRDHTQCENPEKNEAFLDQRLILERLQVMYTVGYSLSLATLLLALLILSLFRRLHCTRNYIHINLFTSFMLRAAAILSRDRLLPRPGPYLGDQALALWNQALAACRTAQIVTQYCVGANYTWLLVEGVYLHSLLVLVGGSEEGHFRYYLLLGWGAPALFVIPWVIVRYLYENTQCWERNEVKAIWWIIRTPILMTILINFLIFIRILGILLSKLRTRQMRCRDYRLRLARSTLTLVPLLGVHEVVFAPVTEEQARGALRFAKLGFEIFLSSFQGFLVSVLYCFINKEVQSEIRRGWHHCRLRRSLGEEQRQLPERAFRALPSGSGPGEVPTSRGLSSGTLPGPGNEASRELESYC

B1: Example 274 (peptide)
peptide: Y[Aib]EGTFTSDYSILLDKK([AEEA-AEEA-γGlu-C18 diacid])AQPAFIEYLIEGGPSSG-NH2
modifications: N-terminus assumed
SMILES: CC[C@H](C)[C@H](NC(=O)[C@H](CC(C)C)NC(=O)[C@H](Cc1ccc(O)cc1)NC(=O)[C@H](CCC(=O)O)NC(=O)[C@@H](NC(=O)[C@H](Cc1ccccc1)NC(=O)[C@H](C)NC(=O)[C@@H]1CCCN1C(=O)[C@H](CCC(N)=O)NC(=O)[C@H](C)NC(=O)[C@H](CCCCNC(=O)COCCOCCNC(=O)COCCOCCNC(=O)CC[C@H](NC(=O)CCCCCCCCCCCCCCCCC(=O)O)C(=O)O)NC(=O)[C@H](CCCCN)NC(=O)[C@H](CC(=O)O)NC(=O)[C@H](CC(C)C)NC(=O)[C@H](CC(C)C)NC(=O)[C@@H](NC(=O)[C@H](CO)NC(=O)[C@H](Cc1ccc(O)cc1)NC(=O)[C@H](CC(=O)O)NC(=O)[C@H](CO)NC(=O)[C@@H](NC(=O)[C@H](Cc1ccccc1)NC(=O)[C@@H](NC(=O)CNC(=O)[C@H](CCC(=O)O)NC(=O)C(C)(C)NC(=O)[C@@H](N)Cc1ccc(O)cc1)[C@@H](C)O)[C@@H](C)O)[C@@H](C)CC)[C@@H](C)CC)C(=O)N[C@@H](CCC(=O)O)C(=O)NCC(=O)NCC(=O)N1CCC[C@H]1C(=O)N[C@@H](CO)C(=O)N[C@@H](CO)C(=O)NCC(N)=O
B2: Example 295 (peptide)
peptide: Y[Aib]EGTFTSDYSILLDKK([AEEA-AEEA-γGlu-C18 diacid])AQHAFIEYLIEGG-NH2
modifications: N-terminus assumed
SMILES: CC[C@H](C)[C@H](NC(=O)[C@H](CC(C)C)NC(=O)[C@H](Cc1ccc(O)cc1)NC(=O)[C@H](CCC(=O)O)NC(=O)[C@@H](NC(=O)[C@H](Cc1ccccc1)NC(=O)[C@H](C)NC(=O)[C@H](Cc1c[nH]cn1)NC(=O)[C@H](CCC(N)=O)NC(=O)[C@H](C)NC(=O)[C@H](CCCCNC(=O)COCCOCCNC(=O)COCCOCCNC(=O)CC[C@H](NC(=O)CCCCCCCCCCCCCCCCC(=O)O)C(=O)O)NC(=O)[C@H](CCCCN)NC(=O)[C@H](CC(=O)O)NC(=O)[C@H](CC(C)C)NC(=O)[C@H](CC(C)C)NC(=O)[C@@H](NC(=O)[C@H](CO)NC(=O)[C@H](Cc1ccc(O)cc1)NC(=O)[C@H](CC(=O)O)NC(=O)[C@H](CO)NC(=O)[C@@H](NC(=O)[C@H](Cc1ccccc1)NC(=O)[C@@H](NC(=O)CNC(=O)[C@H](CCC(=O)O)NC(=O)C(C)(C)NC(=O)[C@@H](N)Cc1ccc(O)cc1)[C@@H](C)O)[C@@H](C)O)[C@@H](C)CC)[C@@H](C)CC)C(=O)N[C@@H](CCC(=O)O)C(=O)NCC(=O)NCC(N)=O
B3: Example 294 (peptide)
peptide: Y[Aib]EGTFTSDYSILLDKK([AEEA-AEEA-γGlu-C18 diacid])AQQAFIEYLIEGG-NH2
modifications: N-terminus assumed
SMILES: CC[C@H](C)[C@H](NC(=O)[C@H](CC(C)C)NC(=O)[C@H](Cc1ccc(O)cc1)NC(=O)[C@H](CCC(=O)O)NC(=O)[C@@H](NC(=O)[C@H](Cc1ccccc1)NC(=O)[C@H](C)NC(=O)[C@H](CCC(N)=O)NC(=O)[C@H](CCC(N)=O)NC(=O)[C@H](C)NC(=O)[C@H](CCCCNC(=O)COCCOCCNC(=O)COCCOCCNC(=O)CC[C@H](NC(=O)CCCCCCCCCCCCCCCCC(=O)O)C(=O)O)NC(=O)[C@H](CCCCN)NC(=O)[C@H](CC(=O)O)NC(=O)[C@H](CC(C)C)NC(=O)[C@H](CC(C)C)NC(=O)[C@@H](NC(=O)[C@H](CO)NC(=O)[C@H](Cc1ccc(O)cc1)NC(=O)[C@H](CC(=O)O)NC(=O)[C@H](CO)NC(=O)[C@@H](NC(=O)[C@H](Cc1ccccc1)NC(=O)[C@@H](NC(=O)CNC(=O)[C@H](CCC(=O)O)NC(=O)C(C)(C)NC(=O)[C@@H](N)Cc1ccc(O)cc1)[C@@H](C)O)[C@@H](C)O)[C@@H](C)CC)[C@@H](C)CC)C(=O)N[C@@H](CCC(=O)O)C(=O)NCC(=O)NCC(N)=O
B4: Example 275 (peptide)
peptide: Y[Aib]EGTFTSDYSILLDKK([AEEA-AEEA-γGlu-C18 diacid])AQPAFIEYLIEGG-NH2
modifications: N-terminus assumed
SMILES: CC[C@H](C)[C@H](NC(=O)[C@H](CC(C)C)NC(=O)[C@H](Cc1ccc(O)cc1)NC(=O)[C@H](CCC(=O)O)NC(=O)[C@@H](NC(=O)[C@H](Cc1ccccc1)NC(=O)[C@H](C)NC(=O)[C@@H]1CCCN1C(=O)[C@H](CCC(N)=O)NC(=O)[C@H](C)NC(=O)[C@H](CCCCNC(=O)COCCOCCNC(=O)COCCOCCNC(=O)CC[C@H](NC(=O)CCCCCCCCCCCCCCCCC(=O)O)C(=O)O)NC(=O)[C@H](CCCCN)NC(=O)[C@H](CC(=O)O)NC(=O)[C@H](CC(C)C)NC(=O)[C@H](CC(C)C)NC(=O)[C@@H](NC(=O)[C@H](CO)NC(=O)[C@H](Cc1ccc(O)cc1)NC(=O)[C@H](CC(=O)O)NC(=O)[C@H](CO)NC(=O)[C@@H](NC(=O)[C@H](Cc1ccccc1)NC(=O)[C@@H](NC(=O)CNC(=O)[C@H](CCC(=O)O)NC(=O)C(C)(C)NC(=O)[C@@H](N)Cc1ccc(O)cc1)[C@@H](C)O)[C@@H](C)O)[C@@H](C)CC)[C@@H](C)CC)C(=O)N[C@@H](CCC(=O)O)C(=O)NCC(=O)NCC(N)=O
B5: Example 288 (peptide)
peptide: Y[Aib]EGTFTSDYSILLDKK([AEEA-AEEA-γGlu-C20 diacid])AQ[Aib]AFIEYLIAGGPSSGAPPPS-NH2
modifications: N-terminus assumed
SMILES: CC[C@H](C)[C@H](NC(=O)[C@H](CC(C)C)NC(=O)[C@H](Cc1ccc(O)cc1)NC(=O)[C@H](CCC(=O)O)NC(=O)[C@@H](NC(=O)[C@H](Cc1ccccc1)NC(=O)[C@H](C)NC(=O)C(C)(C)NC(=O)[C@H](CCC(N)=O)NC(=O)[C@H](C)NC(=O)[C@H](CCCCNC(=O)COCCOCCNC(=O)COCCOCCNC(=O)CC[C@H](NC(=O)CCCCCCCCCCCCCCCCCCC(=O)O)C(=O)O)NC(=O)[C@H](CCCCN)NC(=O)[C@H](CC(=O)O)NC(=O)[C@H](CC(C)C)NC(=O)[C@H](CC(C)C)NC(=O)[C@@H](NC(=O)[C@H](CO)NC(=O)[C@H](Cc1ccc(O)cc1)NC(=O)[C@H](CC(=O)O)NC(=O)[C@H](CO)NC(=O)[C@@H](NC(=O)[C@H](Cc1ccccc1)NC(=O)[C@@H](NC(=O)CNC(=O)[C@H](CCC(=O)O)NC(=O)C(C)(C)NC(=O)[C@@H](N)Cc1ccc(O)cc1)[C@@H](C)O)[C@@H](C)O)[C@@H](C)CC)[C@@H](C)CC)C(=O)N[C@@H](C)C(=O)NCC(=O)NCC(=O)N1CCC[C@H]1C(=O)N[C@@H](CO)C(=O)N[C@@H](CO)C(=O)NCC(=O)N[C@@H](C)C(=O)N1CCC[C@H]1C(=O)N1CCC[C@H]1C(=O)N1CCC[C@H]1C(=O)N[C@@H](CO)C(N)=O
B6: Example 289 (peptide)
peptide: YXEGTFTSDYSIXLDKKAQXEFIEYLIAGGPSSGAPPPS
modifications: Aib2, αMeL13, (2-[2-(2-Amino-ethoxy)-ethoxy]-acetyl)2-(γ-Glu)-CO-(CH2)18-CO2H on K17, Aib20, C-terminal NH2
B7: Example 292 (peptide)
peptide: B6 peptide with Y1X, Y25X
modifications: D-Tyr1, Aib2, αMeL13, (2-[2-(2-Amino-ethoxy)-ethoxy]-acetyl)2-(γ-Glu)-CO-(CH2)18-CO2H on K17, Aib20, αMeY25, C-terminal NH2
B8: Example 293 (peptide)
peptide: B6 peptide with Y1X, K16X, Y25X
modifications: D-Tyr1, Aib2, αMeL13, Orn16, (2-[2-(2-Amino-ethoxy)-ethoxy]-acetyl)2-(γ-Glu)-CO-(CH2)18-CO2H on K17, Aib20, αMeY25, C-terminal NH2
B9: Example 291 (peptide)
peptide: B6 peptide with Y1X, K16X, E21A, E24X
modifications: D-Tyr1, Aib2, αMeL13, Orn16, (2-[2-(2-Amino-ethoxy)-ethoxy]-acetyl)2-(γ-Glu)-CO-(CH2)18-CO2H on K17, Aib20, D-Glu24, C-terminal NH2
B10: Example 290 (peptide)
peptide: B6 peptide with Y1X
modifications: D-Tyr1, Aib2, αMeL13, (2-[2-(2-Amino-ethoxy)-ethoxy]-acetyl)2-(γ-Glu)-CO-(CH2)18-CO2H on K17, Aib20, C-terminal NH2

What follows are binders tested against T1, human gastric inhibitory peptide … (assay: cell-based or functional assay).
With B1 the “hGIPR cAMP EC50 ratio” value was < 0.00741 and the “hGIPR cAMP Rel EC50” value was > 30 nM. For B2, the “hGIPR cAMP EC50 ratio” value was 0.481 and the “hGIPR cAMP Rel EC50” value was 0.281 nM. With B3 the “hGIPR cAMP EC50 ratio” value was 0.75 and the “hGIPR cAMP Rel EC50” value was 0.183 nM. For B4, the “hGIPR cAMP EC50 ratio” value was < 0.00741 and the “hGIPR cAMP Rel EC50” value was > 30 nM. For B5, the “hGIPR cAMP EC50 ratio” value was 1.2 and the “hGIPR cAMP Rel EC50” value was 0.0732 nM. B6 was tested, and the “hGIPR cAMP EC50 ratio” value was 4.13 and the “hGIPR cAMP Rel EC50” value was 0.0228 nM. In the case of B7, the “hGIPR cAMP EC50 ratio” value is reported as 1.1 and the “hGIPR cAMP Rel EC50” value is reported as 0.0682 nM. B8 was tested, and the “hGIPR cAMP EC50 ratio” value was 1.36 and the “hGIPR cAMP Rel EC50” value was 0.0562 nM. B9 was tested, and the “hGIPR cAMP EC50 ratio” value was 0.746 and the “hGIPR cAMP Rel EC50” value was 0.118 nM. In the case of B10, the “hGIPR cAMP EC50 ratio” value is reported as 1.09 and the “hGIPR cAMP Rel EC50” value is reported as 0.0629 nM.

The binders below were run against human GLP-1 receptor (GLP-1R) (human, UniProt P43220 24-463) (assay: cell-based or functional assay).
For B1, the “hGLP1R cAMP EC50 ratio” value was 0.00353 and the “hGLP1R cAMP Rel EC50” value was 14.5 nM. With B2 the “hGLP1R cAMP EC50 ratio” value was 0.398 and the “hGLP1R cAMP Rel EC50” value was 0.116 nM. For B3, the “hGLP1R cAMP EC50 ratio” value was 0.249 and the “hGLP1R cAMP Rel EC50” value was 0.185 nM. In the case of B4, the “hGLP1R cAMP EC50 ratio” value is reported as 0.00357 and the “hGLP1R cAMP Rel EC50” value is reported as 14 nM. B5 was tested, and the “hGLP1R cAMP EC50 ratio” value was 0.393 and the “hGLP1R cAMP Rel EC50” value was 0.172 nM. In the case of B6, the “hGLP1R cAMP EC50 ratio” value is reported as 1.33 and the “hGLP1R cAMP Rel EC50” value is reported as 0.0544 nM. With B7 the “hGLP1R cAMP EC50 ratio” value was 0.143 and the “hGLP1R cAMP Rel EC50” value was 0.183 nM. For B8, the “hGLP1R cAMP EC50 ratio” value was 0.197 and the “hGLP1R cAMP Rel EC50” value was 0.132 nM. In the case of B9, the “hGLP1R cAMP EC50 ratio” value is reported as 0.188 and the “hGLP1R cAMP Rel EC50” value is reported as 0.15 nM. In the case of B10, the “hGLP1R cAMP EC50 ratio” value is reported as 0.279 and the “hGLP1R cAMP Rel EC50” value is reported as 0.179 nM.
